Assay results taken from patent publication US20240400689A1.

T1: HUMAN B7H3 (Biacore analyte) (human) (UniProt Q5ZPR3)
T1 sequence (looked up): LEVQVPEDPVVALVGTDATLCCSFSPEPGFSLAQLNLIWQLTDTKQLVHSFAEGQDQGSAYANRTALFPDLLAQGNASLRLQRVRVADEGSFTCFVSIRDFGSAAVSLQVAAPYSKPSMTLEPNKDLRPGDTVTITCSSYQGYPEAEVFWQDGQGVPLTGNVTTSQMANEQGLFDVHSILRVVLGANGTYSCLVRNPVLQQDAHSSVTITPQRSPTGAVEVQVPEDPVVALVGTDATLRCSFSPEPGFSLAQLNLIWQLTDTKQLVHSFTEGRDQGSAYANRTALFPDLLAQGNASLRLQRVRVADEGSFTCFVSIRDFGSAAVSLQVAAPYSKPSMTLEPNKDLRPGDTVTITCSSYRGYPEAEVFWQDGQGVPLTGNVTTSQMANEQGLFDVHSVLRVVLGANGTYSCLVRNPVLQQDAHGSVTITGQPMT


Tests used:
[1] = molecular target: human CD276 protein (human) (UniProt Q5ZPR3); assay: cell-based or functional assay
[2] = molecular target: T1, HUMAN B7H3 (Biacore analyte) (human); assay: SPR, Biacore 8K, antibody captured, B7H3 as analyte, 1:1 binding
[3] = molecular target: human CD276 protein (human) (UniProt Q5ZPR3); assay: FACS on SKOV3 cells
[4] = molecular target: mouse CD276 protein (mouse) (UniProt Q8VE98); assay: FACS on CHO-S-mCD276 cells
Sequence of mouse CD276 protein (mouse) (Q8VE98 29-316): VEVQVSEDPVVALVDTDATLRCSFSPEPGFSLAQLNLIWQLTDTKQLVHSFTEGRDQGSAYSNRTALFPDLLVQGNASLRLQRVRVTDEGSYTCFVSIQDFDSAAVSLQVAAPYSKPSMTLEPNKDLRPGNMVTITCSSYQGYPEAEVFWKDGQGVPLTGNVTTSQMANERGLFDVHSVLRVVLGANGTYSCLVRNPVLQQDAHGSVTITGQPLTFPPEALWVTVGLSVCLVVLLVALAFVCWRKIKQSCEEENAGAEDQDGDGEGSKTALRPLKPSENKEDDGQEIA

Row | EC50 of antibody induced ADCC effect on SKOV3 [1] [µg/mL] | EC50 of antibody induced CDC effect [1] [nM] | Kd [2] [nM] | koff [2] [s⁻¹] | kon [2] [M⁻¹ s⁻¹] | EC50 [3] [µg/mL] | MFI (Max) [3] | FACS MFI [4] | Binder | Top cytotoxicity (%), CDC [1] [%]
1 | 0.0864 | 7.28 | 3.8 | 0.000486 | 128000 | 0.985 | 830 | – | Enoblituzumab (antibody, part only; not given: constant regions, V domains shown, not shown: another chain or arm of the molecule) VH: EVQLVESGGGLVQPGGSLRLSCAASGFTFSSFGMHWVRQAPGKGLEWVAYISSDSSAIYYADTVKGRFTISRDNAKNSLYLQMNSLRDEDTAVYYCGRGRENIYYGSRLDYWGQGTTVTVSS VL: DIQLTQSPSFLSASVGDRVTITCKASQNVDTNVAWYQQKPGKAPKALIYSASYRYSGVPSRFSGSGSGTDFTLTISSLQPEDFATYYCQQYNNYPFTFGQGTKLEIK | 80.1
2 | – | – | – | – | – | – | – | 3170 | 10-B9-D10-A12 (antibody, V domains shown) VH: EVQLQESGPELVRPGVSVKISCKGSGYTFTDYTMHWVKLSHAKSLEWIGVISTYYGNTNYNQKFKGKATLTVDKSSSTAYMELARLTSEDSAIYYCARASYGSGYGPYYWYFDVWGAGTTVTVSS VL: DIQMTQSPASLFASVGETVTITCRASEKIYSYLAWYFQKQGKSPQFLVYNANALAEGVPSRFSGSGSGTQFSLKINSLQPEDFGTYYCQHHYGTPVTFGAGSKLELK | –
